Measured values as given in patent US20200308228A1 (KING ABDULAZIZ UNIVERSITY, published 2020).
Entries after “also recorded” stand apart in the source; their conditions may differ. Where no end group is shown, it is not given here. [ ]: non-standard residue; d: D form. The star is where a group is joined. FITC = O=C1OC2(c3ccc(O)cc3Oc3cc(O)ccc32)c2ccc(NC(=S)*)cc21; hI = homoisoleucine, (2S)-2-amino-4-methylhexanoic acid; Chg = N[C@H](C(=O)O)C1CCCCC1; Ahx = NCCCCCC(=O)O

How the values were obtained:
[1] = biological target: T1, Pep-15 of SEQ ID NO: 20 (KKGSx[…])
T1 chain: KKGSGVIVGRIVLSGKK

[2] = biological target: T2, NS3 of SEQ ID NO: 3 (NS3 domain of Hepatitis C virus genotype 4a fused to the T7 tag at the N-terminus and … (Hepatitis C virus (genotype 4a))); assay: fluorescence anisotropy, 0.1 µM labelled peptide titrated with NS3
T2 construct: also called HCV NS3 genotype 4a
T2 chain: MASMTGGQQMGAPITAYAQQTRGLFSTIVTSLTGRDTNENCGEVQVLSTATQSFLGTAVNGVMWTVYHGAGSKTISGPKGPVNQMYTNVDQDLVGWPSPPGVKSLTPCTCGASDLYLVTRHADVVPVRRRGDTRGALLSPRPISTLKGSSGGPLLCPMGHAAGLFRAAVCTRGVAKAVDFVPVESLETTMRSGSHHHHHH

[3] = biological target: T2, NS3 of SEQ ID NO: 3 (NS3 domain of …); assay: differential static light scattering (DSLS), NS3:peptide 1:2, 2 h at room temperature
[4] = biological target: T2, NS3 of SEQ ID NO: 3 (NS3 domain of …); assay: differential static light scattering (DSLS)
[5] = biological target: T2, NS3 of SEQ ID NO: 3 (NS3 domain of …); assay: competition fluorescence anisotropy against 0.1 µM labelled NS4A peptide with 1.8 µM NS3

B1: NS3 of SEQ ID NO: 3 (NS3 domain of Hepatitis C virus genotype 4a fused to the T7 tag at the N-terminus and 6-His tag at the C-terminus) (protein)
chain: MASMTGGQQMGAPITAYAQQTRGLFSTIVTSLTGRDTNENCGEVQVLSTATQSFLGTAVNGVMWTVYHGAGSKTISGPKGPVNQMYTNVDQDLVGWPSPPGVKSLTPCTCGASDLYLVTRHADVVPVRRRGDTRGALLSPRPISTLKGSSGGPLLCPMGHAAGLFRAAVCTRGVAKAVDFVPVESLETTMRSGSHHHHHH
- protease activity (cleavage of 5FAM-substrate of SEQ ID NO: 22, fluorescence at 520 nm) [1]: maintained 69.7% of the enzyme activity during the first 60 minutes; also recorded: After 60 minutes, it was observed that the activity of the enzyme completely disappeared

B2: isothiocyanate-labeled NS4A peptide of SEQ ID NO: 25 (FITC-NS4A) (peptide)
peptide: {FITC}-[Ahx]KKGSVVIVGRIVLSGKK
notes: also called fluorescein isothiocyanate-NS4A
- Kd [2]: 169 nM

B3: NS4A peptide of SEQ ID NO: 4 (KK-[…]-KK, comprising the native NS4A21-33 of SEQ ID NO: 2) (peptide)
peptide: KKGSVVIVGRIVLSGKK
notes: Synthetic peptide; the KK at each end is not part of NS4A
- ΔTagg [3]: 2.83 ° C.

Binder: KKGSFVIVGRIVLSGKK [Pep-11 of SEQ ID NO: 16 (KKGSFVIVGRIVLSGKK)]
- binding result [4]: binds

Binder: KKGS[hI]VIVGRIVLSGKK [Pep-14 of SEQ ID NO: 19 (KKGSh[…])]
- binding result [4]: binds

Binder: KKGSAVIVGRIVLSGKK [Pep-13 of SEQ ID NO: 18 (KKGSAVIVGRIVLSGKK)]
- binding result [4]: binds

Binder: KKGS[Chg]VIVGRIVLSGKK [Pep-15 of SEQ ID NO: 20 (KKGSx[…])]
- Tagg shift [4]: 3.9 ° C.
- Kd [5]: 70 nM

Binder: KKGSWVIVGRIVLSGKK [Pep-12 of SEQ ID NO: 17 (KKGSWVIVGRIVLSGKK)]
- binding result [4]: binds
